{"source": "patent US20200325237A1", "about": "(AVIDITY BIOSCIENCES, published 2020)", "binders": {"B1": {"name": "13E4_WT (parent chimeric anti-TfR antibody) (antibody, V domains shown)", "VH": "QVQLQQPGAELVKPGASVKLSCKASGYTFTNYWMHWVKQRPGQGLEWIGEINPINGRSNYGERFKTKATLTVDKSSSTAYMQLSSLTSEDSAVYYCARGTRAMHYWGQGTSVTVSS", "VL": "DIQMTQSPASLSVSVGETVTITCRTSENIYNNLAWYQQKQGKSPQLLVYAATNLADGVPSRFSGSGSGTQYSLKINSLQSEDFGNYYCQHFWGTPLTFGAGTKLELK", "notes": "also called 13E4_WT 1st; 13E4_WT 2nd"}}, "key": {"[1]": {"biological_target": "T1, hTfR (human transferrin receptor, source and construct not stated) (human, UniProt P02786 89-760, limits assumed)", "T1 sequence (P02786 89-760 limits assumed)": "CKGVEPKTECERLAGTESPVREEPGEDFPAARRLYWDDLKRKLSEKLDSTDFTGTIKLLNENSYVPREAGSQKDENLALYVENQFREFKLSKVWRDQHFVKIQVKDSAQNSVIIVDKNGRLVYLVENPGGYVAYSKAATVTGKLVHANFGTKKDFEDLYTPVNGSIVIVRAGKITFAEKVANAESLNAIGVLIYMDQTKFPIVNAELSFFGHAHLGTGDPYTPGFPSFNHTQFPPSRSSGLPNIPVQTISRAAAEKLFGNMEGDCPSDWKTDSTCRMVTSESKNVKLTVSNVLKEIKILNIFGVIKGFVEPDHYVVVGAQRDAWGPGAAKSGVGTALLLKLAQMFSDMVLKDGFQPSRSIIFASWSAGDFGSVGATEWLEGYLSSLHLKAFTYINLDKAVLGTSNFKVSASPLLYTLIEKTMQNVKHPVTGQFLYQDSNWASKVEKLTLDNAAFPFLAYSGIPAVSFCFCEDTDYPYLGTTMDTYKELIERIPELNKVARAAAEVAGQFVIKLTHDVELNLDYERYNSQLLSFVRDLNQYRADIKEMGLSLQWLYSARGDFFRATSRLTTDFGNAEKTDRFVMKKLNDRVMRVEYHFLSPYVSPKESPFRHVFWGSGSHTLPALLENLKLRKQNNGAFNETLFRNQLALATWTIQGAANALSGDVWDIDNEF", "assay": "SPR (BioRad ProteOn XPR36), mAb captured on Protein A, hTfR as analyte, 25 C; 13E4_WT 2nd run", "procedure": "(§1) The binding kinetics of nine exemplary humanized anti-TfR antibodies and the parent chimeric antibody were characterized. Studies were run on a BioRad ProteOn XPR36 optical biosensor using a GLM sensor chip coated with Protein A for mAb capture. Running buffer included 10 mM EPES, 150 mM NaCl, pH 7.4 with 0.05 tween-20 with 0.2 mg/ml BSA. Data were collected at 25 degrees C. All mAbs were diluted into running buffer to 2 ug/ml based on the stock concentration provided. Each was then captured for 40 seconds over a Protein A surface.\n(§2) hTfR (100 ug) was dissolved into […] of water to yield a 4.3 uM stock concentration. hTfR was dilted to 43 nM as the highest concentration and tested in a 3 fold dilution series. hTfR was injected at 200 ul/min for 2 minutes followed by a one-hour dissociation phase."}, "[2]": {"biological_target": "T1, hTfR (human transferrin receptor, …)", "assay": "SPR (BioRad ProteOn XPR36), average of the three 13E4_WT runs, mAb captured on Protein A, hTfR as analyte, 25 C; Average (n = 3) of the three 13E4_WT runs", "procedure": "as §1, §2"}, "[3]": {"biological_target": "T1, hTfR (human transferrin receptor, …)", "assay": "ELISA, biotinylated antibody on hTfR captured by plate-coated HFE (HFE+TfR); fit: specific binding with Hill slope"}, "[4]": {"biological_target": "T1, hTfR (human transferrin receptor, …)", "assay": "SPR (BioRad ProteOn XPR36), mAb captured on Protein A, hTfR as analyte, 25 C", "procedure,_shortened": "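Antibodies at 2 ug/ml were captured on a Protein A GLM chip for 40 s. hTfR was injected as analyte from 43 nM in a 3-fold series, 2 min association and 1 h dissociation. Run at 25 degrees C in HEPES/150 mM NaCl pH 7.4 with tween-20 and 0.2 mg/ml BSA.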"}, "[5]": {"biological_target": "T2, recombinant human transferrin receptor protein (Sino Biological 11020-H07H) (human, UniProt P02786 89-760)", "T2 construct": "Bought protein coated on ELISA plates; also called recombinant human TfR1; human TfR1", "T2 sequence (P02786 89-760 limits assumed)": "as above", "assay": "ELISA on plate-coated recombinant human TfR1 (CD71); fit: specific binding with Hill slope", "procedure": "Half-well high-binding 96-well plates (Costar #3690) were coated with recombinant human transferrin receptor protein (Sino Biological 11020-H07H) or recombinant cyno transferrin receptor protein (Sino Biological 90253-C07H) at 1 ng/μL in PBS (Gibco 14190) and incubated overnight at 4° C. Plates were washed four times with 100 μL of Tris buffered saline+Tween (20×TBST, Cell Signaling 9997S). 100 μL of Superblock (ThermoFisher PI-37535) was added to each well and incubated for 1 hour at room temperature. The wash step was repeated before the addition of the samples. Samples were added at concentrations up to 10 nM, 50 μL/well. Plates were incubated for another hour at room temp and wash step repeated. Secondary antibody (Peroxidase AffiniPure Goat Anti-Human IgG, Fcγ Fragment Specific, Jackson Immunoresearch, 109-035-098) was diluted 1:5000 in Superblock and 50 μL/well added. Plates were incubated for 1 hour at room temperature and washed one more time. Binding was measured by the addition of 50 μL of 1-Step™ Ultra TMB-ELISA (ThermoFisher, 34028), incubated for 5 minutes, and the reaction was stopped with the addition of 25 μL of Stop Solution 2N sulfuric Acid (R&D Systems DY994). Absorbance was measured at 450 nm, with reference wavelength 570 nm subtracted. Binding constants were determined using GraphPad Prism Specific Binding with Hill Slope."}, "[6]": {"biological_target": "T1, hTfR (human transferrin receptor, …)", "assay": "ELISA, biotinylated antibody on hTfR captured by plate-coated human holo-transferrin (Tf+TfR); fit: specific binding with Hill slope", "procedure,_shortened": "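Human holo-transferrin coated at 500 ng/mL (4 °C overnight) captured hTfR (200 ng/mL, 30 min); comparison plates carried directly coated hTfR. Biotinylated antibodies, 3-fold series from 20 nM (pre-addition), bound 1 h; streptavidin-HRP/TMB, A450 minus A570. Kd from specific binding with Hill slope; shift judged against reference antibody AF2474 with transferrin-overlapping epitope.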"}}, "note": "Several values for one entry are separate records, joined by “and”; a condition that tells them apart may be missing. Equal entries are not always repeated."}
{"binder": "B1", "values": [{"measurement": "koff", "setting": "[1]", "value": "1.5e-06", "unit": "s⁻¹"}, {"measurement": "kon", "setting": "[2]", "value": 900000, "unit": "M⁻¹ s⁻¹"}, {"measurement": "Bmax", "setting": "[3]", "value": 2.88, "unit": "A450"}, {"measurement": "Kd", "setting": "[3]", "value": 0.286, "unit": "nM"}, {"measurement": "h", "setting": "[3]", "value": 1.54}, {"measurement": "kon", "setting": "[4]", "value": "1.06e+06 M⁻¹ s⁻¹ and 903000 M⁻¹ s⁻¹ and 840000 M⁻¹ s⁻¹"}, {"measurement": "Bmax", "setting": "[5]", "value": 98.3, "unit": "% max binding"}, {"measurement": "Kd", "setting": "[5]", "value": 0.0062, "unit": "nM"}, {"measurement": "h", "setting": "[5]", "value": 1.18}, {"measurement": "Bmax", "setting": "[6]", "value": 3.45, "unit": "A450"}, {"measurement": "Kd", "setting": "[6]", "value": 0.0518, "unit": "nM"}, {"measurement": "h", "setting": "[6]", "value": 1.57}]}
